Substitutions are numbered along the chain they refer to.

The values below come from PMC10783490, “Biochemical and cellular insights into the Baz2B protein, a non-catalytic subunit of the chromatin remodeling complex” (Nucleic Acids Research, 2023).

Conditions in all cases: protein: recombinant; tags: His6
Data set [1] has as its target T1, TAM-AT1-AT2 Baz2B (Homo sapiens, UniProt Q9UIF8 721-884).
T1 sequence: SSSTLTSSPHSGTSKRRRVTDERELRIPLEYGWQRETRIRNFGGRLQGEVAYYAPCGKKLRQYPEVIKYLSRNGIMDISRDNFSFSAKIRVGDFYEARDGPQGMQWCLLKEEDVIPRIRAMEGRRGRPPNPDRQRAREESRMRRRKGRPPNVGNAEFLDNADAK
Briefly: MST; EMSA: 20 mM HEPES pH 7.5, 30 mM KCl, 1 mM EDTA, 10 mM (NH4)2SO4, 1 mM DTT, 4 C, 10 nM probe; MST: same plus 0.1 ug/ml BSA, 5 nM probe, 25 C; GST-AT-hook and bromodomain EMSA as in cited refs.

The target in data set [2] is T1, TAM-AT1-AT2 Baz2B. Briefly: EMSA; mutant series; EMSA: 20 mM HEPES pH 7.5, 30 mM KCl, 1 mM EDTA, 10 mM (NH4)2SO4, 1 mM DTT, 4 C, 10 nM probe; MST: same plus 0.1 ug/ml BSA, 5 nM probe, 25 C; GST-AT-hook and bromodomain EMSA as in cited refs.
A further data set deals with T2, TAM-AT1-AT2 Baz2B R760E (Homo sapiens, UniProt Q9UIF8 721-884, R760E).
T2 sequence: T1 sequence with R40E
Briefly: EMSA; EMSA: 20 mM HEPES pH 7.5, 30 mM KCl, 1 mM EDTA, 10 mM (NH4)2SO4, 1 mM DTT, 4 C, 10 nM probe; MST: same plus 0.1 ug/ml BSA, 5 nM probe, 25 C; GST-AT-hook and bromodomain EMSA as in cited refs.

The next data set has as its target T3, TAM-AT1-AT2 Baz2B R837E (Homo sapiens, UniProt Q9UIF8 721-884, R837E).
T3 sequence: T1 sequence with R117E
The data set is described as above.

Data set [3] addresses T1, TAM-AT1-AT2 Baz2B. The description is as above.
The target of the next data set is T4, TAM-AT1-AT2 Baz2B R781E (Homo sapiens, UniProt Q9UIF8 721-884, R781E).
T4 sequence: T1 sequence with R61E
The data set is described as above.

Another data set deals with T5, TAM-AT1-AT2 Baz2B R765E (Homo sapiens, UniProt Q9UIF8 721-884, R765E).
T5 sequence: T1 sequence with R45E
Described as above.

The target in another data set is T6, TAM-AT1-AT2 Baz2B Q767A (Homo sapiens, UniProt Q9UIF8 721-884, Q767A).
T6 sequence: T1 sequence with Q47A
Described as above.

Another data set has as its target T7, TAM-AT1-AT2 Baz2B L766A (Homo sapiens, UniProt Q9UIF8 721-884, L766A).
T7 sequence: T1 sequence with L46A
The data set is described as above.

B1: 45 nt ssDNA FLP015 (ssDNA)
DNA: ATCAGTTCTCCGGGTTGTCAGGTCGACCAGTTGTTCCTTTGAGGT
On to B1, for which the dissociation constant (Kd) in the data set with TAM-AT1-AT2 Baz2B [1] was 160 nM; with TAM-AT1-AT2 Baz2B [2], 228 ± 97.8 nM; with TAM-AT1-AT2 Baz2B R760E it was 161 ± 44.7 nM; with TAM-AT1-AT2 Baz2B R837E, 248 ± 84.2 nM; with TAM-AT1-AT2 Baz2B [3] it was 122 nM; with TAM-AT1-AT2 Baz2B R781E, 220 ± 110 nM. Also, the dissociation constant Kd in the data set with TAM-AT1-AT2 Baz2B R765E is 93.1 ± 13 nM; with TAM-AT1-AT2 Baz2B Q767A, 206 ± 81 nM; with TAM-AT1-AT2 Baz2B L766A, 275 ± 82.9 nM.
